Assay [1] has as its target Fluorescein-SRC1–1 Coactivator Peptide 3. As to the kind of experiment: fluorescence polarisation; TR+T3 or the complex TR+T3:PDIA1 titrated from 1 to 7,000 nM into 50 nM fluorescein-SRC1 peptide; buffer A or B; triplicate.
Assay [2] deals with hTRβΔAB (amino acids 102–461) labelled with FITC (human) (UniProt P10828). The assay is described as follows: fluorescence polarisation; oxidised PDIA1 (pre-incubated with 0.5 mM H2O2 for 30 min) titrated from 0.012 to 25 μM into 50 nM TR-FITC; 20 mM sodium phosphate pH 7.4, 150 mM NaCl, 5 mM MgCl2, no DTT in the buffer; with and without T3 by the methods, not given for the values.

The target in assay [3] is hTRα full length labelled with FITC (human) (UniProt P10827). Described as above.
The target in assay [4] is hTRβΔAB (amino acids 102–461) labelled with FITC (human) (UniProt P10828). The assay is described as follows: fluorescence polarisation; PDIA1 titrated from 0.012 to 25 μM into 50 nM TR-FITC, without T3; 20 mM sodium phosphate pH 7.4, 150 mM NaCl, 5 mM MgCl2, 1 mM DTT; 20°C; Hill fit. For orientation: Polarisation of emitted light reports the rotation of a fluorescent probe.

Assay [5] concerns the target hTRα full length labelled with FITC (human) (UniProt P10827). The assay is described as above.
For assay [6], the target named is hTRβΔAB (amino acids 102–461) labelled with FITC (human) (UniProt P10828). As to the kind of experiment: fluorescence polarisation; PDIA1 titrated from 0.012 to 25 μM into 50 nM TR-FITC pre-incubated with 3 times molar excess of T3; 20 mM sodium phosphate pH 7.4, 150 mM NaCl, 5 mM MgCl2, 1 mM DTT; 20°C; Hill fit.
Assay [7] concerns the target hTRα full length labelled with FITC (human) (UniProt P10827). The assay is described as above.
Assay [8] deals with hTRβΔAB (amino acids 102–461) labelled with FITC (human) (UniProt P10828). The assay is described as follows: fluorescence polarisation; reduced PDIA1 (pre-incubated with 0.5 mM DTT for 30 min) titrated from 0.012 to 25 μM into 50 nM TR-FITC; 20 mM sodium phosphate pH 7.4, 150 mM NaCl, 5 mM MgCl2, no DTT in the buffer; with and without T3 by the methods, not given for the values.

Assay [9] addresses hTRα full length labelled with FITC (human) (UniProt P10827). Described as above.
Assay [10] deals with hTRα full length, recombinant (human) (UniProt P10827). The assay is described as follows: SEC; analytical gel filtration, Superdex 200 HR 10/300, buffer A or B with 150 mM NaCl and 2 mM DTT, 0.5 mL/min; hydrodynamic radii from calibration standards; proteins alone and mixed. (SEC sorts molecules by how far they enter the pores of the column.)
Assay [11] deals with hTRβΔAB (amino acids 102–461), recombinant (human) (UniProt P10828). Described as above.
The target in assay [12] is T1, hTRβΔAB (amino acids 102–461), recombinant (human, UniProt P10828 102-461).
T1 construct: numbers fit TRβ1 (461 aa); Unlabelled protein, used in SEC, DLS and, pre-incubated with T3, in the SRC1 anisotropy; also called TRβDL; source: E. coli BL21(DE3), purified (Talon resin, SEC Superdex 75)
T1 sequence (looked up): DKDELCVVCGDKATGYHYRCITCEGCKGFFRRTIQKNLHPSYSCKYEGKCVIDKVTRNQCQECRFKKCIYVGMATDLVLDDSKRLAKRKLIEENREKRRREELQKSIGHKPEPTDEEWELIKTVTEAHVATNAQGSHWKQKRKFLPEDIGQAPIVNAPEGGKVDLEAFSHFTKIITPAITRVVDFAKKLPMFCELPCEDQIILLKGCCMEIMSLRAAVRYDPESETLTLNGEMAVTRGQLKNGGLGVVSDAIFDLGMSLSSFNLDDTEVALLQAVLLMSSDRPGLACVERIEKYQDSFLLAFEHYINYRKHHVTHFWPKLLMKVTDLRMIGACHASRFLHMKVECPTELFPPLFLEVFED
As to the kind of experiment: fluorescence polarisation; TR+T3 or the complex TR+T3:PDIA1 titrated from 1 to 7,000 nM into 50 nM fluorescein-SRC1 peptide; buffer A or B; triplicate. The following applies: both partners purified.

Primed or numbered codes have the meaning given here. Ends that are not written are not given here. FITC′ = fluorescein isothiocyanate label

On to “TRα+T3:PDIA1 complex (from UniProt P10827-2 1-410; P07237 18-508)”, for which the Kd (in general, a measure of binding affinity in units of concentration) in [1] was 0.7 µM.
The same measure, in the same setting: the result for “TRβ+T3:PDIA1 complex (from UniProt P10828 102-461; P07237 18-508)” reads 0.39 µM.
Turning to “hPDIA1 full length, recombinant (from UniProt P07237 18-508) (enzyme)”, the Kd is over 102 µM in assay [2]; 7.9 µM in assay [3]; 2.71 µM in assay [4]; 2.05 µM in [5]; 2.81 µM in [6]; 1.97 µM in [7]. The Kd in [8] worked out at 4.54 µM; in assay [9] it was 10.7 µM. In addition, the stoichiometry N in [10] and in assay [11] was 1 in each case.
“hTRα full length, recombinant (from UniProt P10827-2 1-410) (receptor)”: in assay [1], the Kd is 0.29 µM.

B1: Fluorescein-SRC1–1 Coactivator Peptide 3 (peptide)
peptide: {FITC′}-KYSQTSHKLVQLLTTTAEQQL
notes: also called SRC1 peptide; CoA peptide; source: bought: Life-technologies
As for B1, the Kd in [12] came out at 0.68 ± 0.06 µM.
